In article PMC7583008:

Legend:
[1] = biological target: GH2 β-mannosidase from Cellulomonas fimi (EC 3.2.1.25) (Cellulomonas fimi) (UniProt Q9XCV4); assay: enzyme inhibition titration (residual activity against inhibitor/enzyme ratio); fixed enzyme (11.8 μM) preincubated with increasing γC for 10 min at room temperature; 100 mM sodium maleate pH 6.0, BSA 1 mg/mL, 1 mM Zn2+, pNP-β-D-mannopyranoside 0.8 mM, 35 °C, 15 min; Ki calculated from the IC50 by the method of Cer et al., assuming competitive inhibition (Km 300 μM); stoichiometry from the x-intercept of the tangent line
[2] = biological target: GH2 β-mannosidase from Cellulomonas fimi (EC 3.2.1.25) (Cellulomonas fimi) (UniProt Q9XCV4)
[3] = biological target: GH2 β-mannosidase from Cellulomonas fimi (EC 3.2.1.25) (Cellulomonas fimi) (UniProt Q9XCV4); remark: listed apart in the source
[4] = biological target: GH2 β-mannosidase from Cellulomonas fimi (EC 3.2.1.25) (Cellulomonas fimi) (UniProt Q9XCV4); remark: listed apart in the source

Chain of UniProt Q9XCV4 (Q9XCV4 entry or part of it): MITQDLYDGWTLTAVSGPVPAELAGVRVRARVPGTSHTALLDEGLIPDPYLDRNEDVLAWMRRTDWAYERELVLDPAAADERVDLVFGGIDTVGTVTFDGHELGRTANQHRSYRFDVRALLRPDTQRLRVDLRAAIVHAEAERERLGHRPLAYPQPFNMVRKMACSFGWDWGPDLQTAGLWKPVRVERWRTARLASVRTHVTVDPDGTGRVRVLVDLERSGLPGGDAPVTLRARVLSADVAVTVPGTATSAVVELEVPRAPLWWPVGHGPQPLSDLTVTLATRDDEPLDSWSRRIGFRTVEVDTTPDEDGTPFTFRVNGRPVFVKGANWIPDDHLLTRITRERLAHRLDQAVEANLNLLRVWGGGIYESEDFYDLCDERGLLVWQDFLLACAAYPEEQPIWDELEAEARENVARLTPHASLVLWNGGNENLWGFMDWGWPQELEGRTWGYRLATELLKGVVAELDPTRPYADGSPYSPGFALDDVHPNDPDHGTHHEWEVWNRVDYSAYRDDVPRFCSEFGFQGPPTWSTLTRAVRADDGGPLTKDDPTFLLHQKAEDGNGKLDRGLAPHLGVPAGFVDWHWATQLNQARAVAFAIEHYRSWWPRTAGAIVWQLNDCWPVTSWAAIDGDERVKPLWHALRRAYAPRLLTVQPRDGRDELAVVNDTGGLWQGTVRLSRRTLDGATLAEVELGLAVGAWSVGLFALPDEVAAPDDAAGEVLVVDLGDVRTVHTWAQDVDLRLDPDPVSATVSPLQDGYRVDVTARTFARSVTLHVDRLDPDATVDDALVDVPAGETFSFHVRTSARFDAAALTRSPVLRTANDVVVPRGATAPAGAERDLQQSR

Lupinus albus γ-conglutin (natural protein)
Ki [1]: 1550 nM | stoichiometry N (enzyme/inhibitor) [1]: 1.14 | residual activity of GH2 β-mannosidase with γC at a molar ratio of 1:1 (pNP-β-D-mannopyranoside as substrate, no metal added) [2]: 73% | residual activity of GH2 β-mannosidase with γC at a molar ratio of 1:1 in the presence of 1 mM Zn2+ [3]: 55% | IC50 of the inhibition of GH2 β-mannosidase activity by γC, as a molar ratio (11.8 μM enzyme, 1 mM Zn2+, pH 6.0) (molar ratio [γC]/[GH2]) [4]: 0.99
